This note sets out measurements from patent publication US20180017572A1.

In this test the target is complement factor C1q (UniProt P02745). In words: flow cytometry: BT-474 cells with 10 µg/mL antibody, then 10 µg/mL C1q, detected with PE-labeled anti-C1q antibody. A general note: In flow cytometry, cells or beads pass a laser one at a time.
Sequence of complement factor C1q (P02745 23-245 limits assumed, chain 1 of 3): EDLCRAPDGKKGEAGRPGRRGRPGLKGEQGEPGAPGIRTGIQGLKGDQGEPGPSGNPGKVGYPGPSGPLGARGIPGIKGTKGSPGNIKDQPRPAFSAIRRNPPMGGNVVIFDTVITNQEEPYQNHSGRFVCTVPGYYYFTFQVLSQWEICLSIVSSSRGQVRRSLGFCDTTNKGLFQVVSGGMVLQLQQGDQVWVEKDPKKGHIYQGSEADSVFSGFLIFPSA
Sequence of complement factor C1q (P02746 28-253 limits assumed, chain 2 of 3, further chain): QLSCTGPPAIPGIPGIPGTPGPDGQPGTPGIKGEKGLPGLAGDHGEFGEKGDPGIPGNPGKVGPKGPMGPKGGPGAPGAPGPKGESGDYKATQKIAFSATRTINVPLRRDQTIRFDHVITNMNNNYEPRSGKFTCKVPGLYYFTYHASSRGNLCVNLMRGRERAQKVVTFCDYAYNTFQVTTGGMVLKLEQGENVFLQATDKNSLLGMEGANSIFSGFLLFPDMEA
Sequence of complement factor C1q (P02747 29-245 limits assumed, chain 3 of 3, further chain): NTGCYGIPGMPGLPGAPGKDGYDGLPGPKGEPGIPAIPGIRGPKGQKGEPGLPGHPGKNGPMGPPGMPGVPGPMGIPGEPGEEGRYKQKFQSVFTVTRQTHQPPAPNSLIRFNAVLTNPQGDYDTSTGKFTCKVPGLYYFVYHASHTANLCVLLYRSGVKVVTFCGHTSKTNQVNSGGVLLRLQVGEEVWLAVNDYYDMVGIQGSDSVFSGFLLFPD

Regarding “combination of trastuzumab and pertuzumab (from UniProt P0DOX5 2-449; P0DOX5 2-449)”, the PE-signal (geomean) (geomean PE-signal) was 2160.
